Test results published in publication PMC2782037 (The Journal of Biological Chemistry, 2009).
Blank lines part the entries; values can stand above or below the binder they belong to.

Target: Human FANCD2, non-tagged (human, UniProt Q9BXW9-2 1-1451)
Assay: co-IP

Chain of Human FANCD2, non-tagged (Q9BXW9 whole entry): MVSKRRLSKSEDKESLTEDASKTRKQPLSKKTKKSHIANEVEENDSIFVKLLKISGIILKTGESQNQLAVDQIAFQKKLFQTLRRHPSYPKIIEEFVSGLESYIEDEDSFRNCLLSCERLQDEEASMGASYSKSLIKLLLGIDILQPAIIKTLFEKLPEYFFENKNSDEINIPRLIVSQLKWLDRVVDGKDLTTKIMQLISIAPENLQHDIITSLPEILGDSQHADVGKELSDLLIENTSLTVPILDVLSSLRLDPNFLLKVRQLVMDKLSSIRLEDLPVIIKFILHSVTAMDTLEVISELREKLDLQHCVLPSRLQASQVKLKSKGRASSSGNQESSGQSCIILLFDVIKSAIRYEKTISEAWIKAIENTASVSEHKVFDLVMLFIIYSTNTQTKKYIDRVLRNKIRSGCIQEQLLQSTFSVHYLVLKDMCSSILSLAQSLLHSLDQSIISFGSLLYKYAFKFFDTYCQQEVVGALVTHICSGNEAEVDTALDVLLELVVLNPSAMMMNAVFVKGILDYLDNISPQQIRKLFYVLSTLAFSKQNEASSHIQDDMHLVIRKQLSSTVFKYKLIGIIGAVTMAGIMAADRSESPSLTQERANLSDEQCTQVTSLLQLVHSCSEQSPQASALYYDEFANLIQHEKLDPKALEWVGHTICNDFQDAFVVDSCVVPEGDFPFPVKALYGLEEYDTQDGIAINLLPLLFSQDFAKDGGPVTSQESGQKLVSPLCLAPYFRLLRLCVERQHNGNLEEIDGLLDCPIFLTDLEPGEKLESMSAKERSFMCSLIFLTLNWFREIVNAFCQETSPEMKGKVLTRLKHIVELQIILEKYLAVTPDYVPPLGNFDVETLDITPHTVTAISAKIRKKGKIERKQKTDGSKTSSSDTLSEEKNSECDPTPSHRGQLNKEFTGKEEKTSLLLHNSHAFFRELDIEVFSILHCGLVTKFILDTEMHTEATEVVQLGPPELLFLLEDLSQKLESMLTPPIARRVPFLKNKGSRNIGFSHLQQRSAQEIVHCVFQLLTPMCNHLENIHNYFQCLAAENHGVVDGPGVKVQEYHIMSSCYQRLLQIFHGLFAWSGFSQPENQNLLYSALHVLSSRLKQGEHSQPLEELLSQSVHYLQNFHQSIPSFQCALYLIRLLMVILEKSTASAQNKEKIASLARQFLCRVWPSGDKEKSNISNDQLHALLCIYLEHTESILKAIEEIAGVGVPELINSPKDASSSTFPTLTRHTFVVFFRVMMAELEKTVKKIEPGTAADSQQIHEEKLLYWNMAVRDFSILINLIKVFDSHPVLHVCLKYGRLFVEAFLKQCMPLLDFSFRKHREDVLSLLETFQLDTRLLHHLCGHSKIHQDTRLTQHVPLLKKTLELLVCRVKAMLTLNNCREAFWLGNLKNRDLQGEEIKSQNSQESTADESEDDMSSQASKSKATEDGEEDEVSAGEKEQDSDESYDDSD

binding result: binds
B1: FANCI-D1301A, hexahistidine-tagged (EDGE motif mutant) (natural protein, human, UniProt Q9NVI1-3 1-1328, looked up)
chain: MDQKILSLAAEKTADKLQEFLQTLREGDLTNLLQNQAVKGKVAGALLRAIFKGSPCSEEAGTLRRRKIYTCCIQLVESGDLQKEIASEIIGLLMLEAHHFPGPLLVELANEFISAVREGSLVNGKSLELLPIILTALATKKENLAYGKGVLSGEECKKQLINTLCSGRWDQQYVIQLTSMFKDVPLTAEEVEFVVEKALSMFSKMNLQEIPPLVYQLLVLSSKGSRKSVLEGIIAFFSALDKQHNEEQSGDELLDVVTVPSGELRHVEGTIILHIVFAIKLDYELGRELVKHLKVGQQGDSNNNLSPFSIALLLSVTRIQRFQDQVLDLLKTSVVKSFKDLQLLQGSKFLQNLVPHRSYVSTMILEVVKNSVHSWDHVTQGLVELGFILMDSYGPKKVLDGKTIETSPSLSRMPNQHACKLGANILLETFKIHEMIRQEILEQVLNRVVTRASSPISHFLDLLSNIVMYAPLVLQSCSSKVTEAFDYLSFLPLQTVQRLLKAVQPLLKVSMSMRDCLILVLRKAMFANQLDARKSAVAGFLLLLKNFKVLGSLSSSQCSQSLSVSQVHVDVHSHYNSVANETFCLEIMDSLRRCLSQQADVRLMLYEGFYDVLRRNSQLANSVMQTLLSQLKQFYEPKPDLLPPLKLEACILTQGDKISLQEPLDYLLCCIQHCLAWYKNTVIPLQQGEEEEEEEEAFYEDLDDILESITNRMIKSELEDFELDKSADFSQSTSIGIKNNICAFLVMGVCEVLIEYNFSISSFSKNRFEDILSLFMCYKKLSDILNEKAGKAKTKMANKTSDSLLSMKFVSSLLTALFRDSIQSHQESLSVLRSSNEFMRYAVNVALQKVQQLKETGHVSGPDGQNPEKIFQNLCDITRVLLWRYTSIPTSVEESGKKEKGKSISLLCLEGLQKIFSAVQQFYQPKIQQFLRALDVTDKEGEEREDADVSVTQRTAFQIRQFQRSLLNLLSSQEEDFNSKEALLLVTVLTSLSKLLEPSSPQFVQMLSWTSKICKENSREDALFCKSLMNLLFSLHVSYKSPVILLRDLSQDIHGHLGDIDQDVEVEKTNHFAIVNLRTAAPTVCLLVLSQAEKVLEEVDWLITKLKGQVSQETLSEEASSQATLPNQPVEKAIIMQLGTLLTFFHELVQTALPSGSCVDTLLKDLCKMYTTLTALVRYYLQVCQSSGGIPKNMEKLVKLSGSHLTPLCYSFISYVQNKSKSLNYTGEKKEKPAAVATAMARVLRETKPIPNLIFAIEQYEKFLIHLSKKSKVNLMQHMKLSTSRDFKIKGNILDMVLREAGEDENEEGTASEHGGQNKEPAKKKRKK

binding result: binds
B2: FANCI-(1001–1328), hexahistidine-tagged (domain or fragment, human, UniProt Q9NVI1-3 1001-1328, looked up)
chain: PQFVQMLSWTSKICKENSREDALFCKSLMNLLFSLHVSYKSPVILLRDLSQDIHGHLGDIDQDVEVEKTNHFAIVNLRTAAPTVCLLVLSQAEKVLEEVDWLITKLKGQVSQETLSEEASSQATLPNQPVEKAIIMQLGTLLTFFHELVQTALPSGSCVDTLLKDLCKMYTTLTALVRYYLQVCQSSGGIPKNMEKLVKLSGSHLTPLCYSFISYVQNKSKSLNYTGEKKEKPAAVATAMARVLRETKPIPNLIFAIEQYEKFLIHLSKKSKVNLMQHMKLSTSRDFKIKGNILDMVLREDGEDENEEGTASEHGGQNKEPAKKKRKK
